Measured values: the supplement of paper PMC7125110
± gives the standard error. Fewer inactive variants are shown than the library holds.

B1: glmS ribozyme (parent)
chain: AUAAAAGCGCCAGAACUACAGAAAUGUAGUUGACGAGGAGGAGGUUUAUCGAAUUUUCGGCGGAUGCCUCCAAA

What was measured:
Conditions in all cases: with glucosamine-6-phosphate
glucosamine-6-phosphate [1] = variants of: B1; test: self-cleavage kobs at 640 uM GlcN6P; higher = faster cleavage; RNA array
Summary of the method: (§1)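 kobs was derived by fitting per-tile medians to one- or two-exponential decays after normalising signals to baseline and to non-cleaving reference variants. Those signals came from barcoded ribozyme variants transcribed in situ by E. coli RNA polymerase on sequenced MiSeq chips, followed through a hybridised Cy3 probe at 37 °C and imaged over ~14 h. Glucosamine-6-phosphate (40 μM to 10 mM) in HEPES/KCl/Mg(OAc)2 buffer was flowed in. Weighted Michaelis–Menten fits across concentrations then gave kcat and KM.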

glucosamine-6-phosphate [2] = variants of: B1; test: self-cleavage kobs at 2500 uM GlcN6P; higher = faster cleavage; RNA array
Summary of the method: as §1

glucosamine-6-phosphate [3] = variants of: B1; test: self-cleavage kobs at 10000 uM GlcN6P; higher = faster cleavage; RNA array
Summary of the method: as §1

glucosamine-6-phosphate [4] = variants of: B1; test: self-cleavage kobs at 160 uM GlcN6P; higher = faster cleavage; RNA array
Summary of the method: as §1

AUAAAGGCGCCAGAACUACAGAAAUGUAGUUGACGAGGAGGAGGUUUAUGGUAUUUUCUGCGGAUGCCUCCAAA [A6G C50G A52U G59U]
self-cleavage kobs at 640 uM GlcN6P (glucosamine-6-phosphate [1]): < 1e-05 s⁻¹

AUAAAGACGCCAUACCUACAGAAAUGUAGUUGACGAGGAGGAGGUUUAUCGAAUUUUCGGCGGAUGCAUACAAA [A6G G7A G13U A15C C68A C70A]
self-cleavage kobs at 640 uM GlcN6P (glucosamine-6-phosphate [1]): < 1e-05 s⁻¹

AUAAACGCCCCAGAACUACAGAAAUGUAGUUAACGAGGAGGAGGUUUAUUGAGUUUUCGGCGGAUGCCUCCAAA [A6C G9C G32A C50U A53G]
self-cleavage kobs at 640 uM GlcN6P (glucosamine-6-phosphate [1]): < 1e-05 s⁻¹
self-cleavage kobs at 2500 uM GlcN6P (glucosamine-6-phosphate [2]): < 1e-05 s⁻¹

AUAAACGCGCCAGAACUACAGAAAUGUAGUUGACGAGGAGGAGGUUUAUCGAUUUUUCGGCGGAUGCCUUCAAA [A6C A53U C70U]
self-cleavage kobs at 640 uM GlcN6P (glucosamine-6-phosphate [1]): 6.59e-05 ± 3.2e-05 s⁻¹

AUAAAGGCGCCCGAACUACAGAAAUGUAGUUGACGAGGAGGACGUUUAUCGAAUUUUCGGCGGAUGCCUCCAAA [A6G A12C G43C]
self-cleavage kobs at 640 uM GlcN6P (glucosamine-6-phosphate [1]): < 1e-05 s⁻¹
self-cleavage kobs at 2500 uM GlcN6P (glucosamine-6-phosphate [2]): < 1e-05 s⁻¹

AUAAAGGCGCCAGAAAUACAGAAAUGUAGUUGACGAGGAGGAGGUUUAUCGCAUUUUCGGCGGAUGCCUCCAAA [A6G C16A A52C]
self-cleavage kobs at 640 uM GlcN6P (glucosamine-6-phosphate [1]): < 1e-05 s⁻¹
self-cleavage kobs at 2500 uM GlcN6P (glucosamine-6-phosphate [2]): < 1e-05 s⁻¹

AUAAACGCGCCAGAAGUACAGAAAUGUAGUUGACGACGGGGAGGGUAAUCGAAUUUUCGGCGGAUGCCUCCAAA [A6C C16G G37C A39G U45G U47A]
self-cleavage kobs at 640 uM GlcN6P (glucosamine-6-phosphate [1]): < 1e-05 s⁻¹
self-cleavage kobs at 2500 uM GlcN6P (glucosamine-6-phosphate [2]): < 1e-05 s⁻¹

AUAAACGCGCCAGAACUACAGAAAUGUAGUUGACGAUGAGGAGGUUUAACGAAUUUUCGGCGGAUGCCUCCAAA [A6C G37U U49A]
self-cleavage kobs at 640 uM GlcN6P (glucosamine-6-phosphate [1]): < 1e-05 s⁻¹
self-cleavage kobs at 10000 uM GlcN6P (glucosamine-6-phosphate [3]): < 1e-05 s⁻¹

AUAAAGGCGCCAGAAAUACAGAAAUGUAGUUGACGAGGAGGAGUAUUAUCGAAUUUUCGGCGGAUGCCUCCAAA [A6G C16A G44U U45A]
self-cleavage kobs at 640 uM GlcN6P (glucosamine-6-phosphate [1]): < 1e-05 s⁻¹
self-cleavage kobs at 2500 uM GlcN6P (glucosamine-6-phosphate [2]): < 1e-05 s⁻¹

AUAAAGGCGCCAGAACUACAGAAAUGUAGUUGACGAGGAGGCGGUUUAUCGAAUUAUCGGGGGAUGCCUCCAAA [A6G A42C U56A C61G]
self-cleavage kobs at 640 uM GlcN6P (glucosamine-6-phosphate [1]): < 1e-05 s⁻¹

AUCAAAGCGCCAGAACUACAGAAAUGUAGUUGACGAGGAGGAGGAUUAUCGAAUUUUCGGCGGAAGCCUCCAAA [A3C U45A U65A]
self-cleavage kobs at 640 uM GlcN6P (glucosamine-6-phosphate [1]): 0.00508 ± 0.0012 s⁻¹
self-cleavage kobs at 2500 uM GlcN6P (glucosamine-6-phosphate [2]): 0.00657 ± 0.001 s⁻¹

AUAAACGCGCUAGAACUACAGAAAUGUAGUUGACGAGGAGGAGGUUUAUCCAAUUUUCGGCGGAUGGAUCCAAA [A6C C11U G51C C67G C68A]
self-cleavage kobs at 640 uM GlcN6P (glucosamine-6-phosphate [1]): 0.000105 ± 2.8e-05 s⁻¹
self-cleavage kobs at 2500 uM GlcN6P (glucosamine-6-phosphate [2]): 0.00015 ± 3.5e-05 s⁻¹

AUAAAAGCGCCAGAACUACAGAAAUGUAGUUGACGAGGAGGAGGUUUAUCGAAUUUUCGGCGGAUGCCGGCAAA [U69G C70G]
self-cleavage kobs at 160 uM GlcN6P (glucosamine-6-phosphate [4]): 3.61e-05 ± 8.8e-06 s⁻¹
self-cleavage kobs at 640 uM GlcN6P (glucosamine-6-phosphate [1]): 0.000255 ± 0.00013 s⁻¹
self-cleavage kobs at 2500 uM GlcN6P (glucosamine-6-phosphate [2]): 3.6e-05 ± 9.1e-06 s⁻¹

AUAAAGGCGCCAGAACUACAGAAAUGUAGUUGACGAGGAGGCGGUUUAUCGUAUUUUCGGCGGAUGCAUCCAAA [A6G A42C A52U C68A]
self-cleavage kobs at 640 uM GlcN6P (glucosamine-6-phosphate [1]): < 1e-05 s⁻¹
self-cleavage kobs at 2500 uM GlcN6P (glucosamine-6-phosphate [2]): < 1e-05 s⁻¹

AUAAACGCGCCAGAACUACAGAAAUGUAGUUGACGAGGAGGAGAUUUAUCUAAUUUUCGGCGGAUGCCUCCAAA [A6C G44A G51U]
self-cleavage kobs at 640 uM GlcN6P (glucosamine-6-phosphate [1]): < 1e-05 s⁻¹
self-cleavage kobs at 2500 uM GlcN6P (glucosamine-6-phosphate [2]): < 1e-05 s⁻¹

AUAAACGCGUAAGAACUACAGAAAUGUAGUUGACGAGGAGGAGGUUUAUCGAAUUCUCGGCGGAUGCCUCCAAA [A6C C10U C11A U56C]
self-cleavage kobs at 640 uM GlcN6P (glucosamine-6-phosphate [1]): < 1e-05 s⁻¹
self-cleavage kobs at 2500 uM GlcN6P (glucosamine-6-phosphate [2]): < 1e-05 s⁻¹

AUAAAGGCGCUAGAACUACAGAAAUGUAGUUGACGAGGAGGAGGUUUAUCGAAUUUUCGACGGAUGCCUCUAAA [A6G C11U G60A C71U]
self-cleavage kobs at 640 uM GlcN6P (glucosamine-6-phosphate [1]): < 1e-05 s⁻¹
self-cleavage kobs at 2500 uM GlcN6P (glucosamine-6-phosphate [2]): < 1e-05 s⁻¹

AUAAACGCUCCAGAACUACAGAAAUGUAGUUGACGAGGAGGAGGUUUAUCGGAUUUUCGGCGGAUGCCUCCAAA [A6C G9U A52G]
self-cleavage kobs at 640 uM GlcN6P (glucosamine-6-phosphate [1]): < 1e-05 s⁻¹
self-cleavage kobs at 10000 uM GlcN6P (glucosamine-6-phosphate [3]): < 1e-05 s⁻¹

AUAAAGGCGCCAGAACUACAGAAAUGUAGUUGACGAGGAGGAGGUUUAUGAAAUUUUCGGCGGAUGCCUCCAAA [A6G C50G G51A]
self-cleavage kobs at 640 uM GlcN6P (glucosamine-6-phosphate [1]): < 1e-05 s⁻¹
self-cleavage kobs at 2500 uM GlcN6P (glucosamine-6-phosphate [2]): < 1e-05 s⁻¹

AUAAACGCGCCAGAACUACAGAAAUGUAGUGGACGAGGAUGAAGUUUAUGGAAUUUUCGCCGGAUGCCUCCAAA [A6C U31G G40U G43A C50G G60C]
self-cleavage kobs at 640 uM GlcN6P (glucosamine-6-phosphate [1]): < 1e-05 s⁻¹
self-cleavage kobs at 10000 uM GlcN6P (glucosamine-6-phosphate [3]): < 1e-05 s⁻¹
